In patent publication CN106117360A one finds MFI data, which are given here for one substance.

The target of the test is CD3 on Jurkat cells. The experiment in a line: flow cytometry, culture supernatant on Jurkat cells (negative control sdAb). A general note: In flow cytometry, cells or beads pass a laser one at a time.

NC-sdAb(相同形式的非相关性sdAb) (VHH) returned an MFI of 115 MFI.
